T1: EBOV GP on rVSV particles (Ebola virus (EBOV), UniProt Q05320 33-676)
T1 sequence: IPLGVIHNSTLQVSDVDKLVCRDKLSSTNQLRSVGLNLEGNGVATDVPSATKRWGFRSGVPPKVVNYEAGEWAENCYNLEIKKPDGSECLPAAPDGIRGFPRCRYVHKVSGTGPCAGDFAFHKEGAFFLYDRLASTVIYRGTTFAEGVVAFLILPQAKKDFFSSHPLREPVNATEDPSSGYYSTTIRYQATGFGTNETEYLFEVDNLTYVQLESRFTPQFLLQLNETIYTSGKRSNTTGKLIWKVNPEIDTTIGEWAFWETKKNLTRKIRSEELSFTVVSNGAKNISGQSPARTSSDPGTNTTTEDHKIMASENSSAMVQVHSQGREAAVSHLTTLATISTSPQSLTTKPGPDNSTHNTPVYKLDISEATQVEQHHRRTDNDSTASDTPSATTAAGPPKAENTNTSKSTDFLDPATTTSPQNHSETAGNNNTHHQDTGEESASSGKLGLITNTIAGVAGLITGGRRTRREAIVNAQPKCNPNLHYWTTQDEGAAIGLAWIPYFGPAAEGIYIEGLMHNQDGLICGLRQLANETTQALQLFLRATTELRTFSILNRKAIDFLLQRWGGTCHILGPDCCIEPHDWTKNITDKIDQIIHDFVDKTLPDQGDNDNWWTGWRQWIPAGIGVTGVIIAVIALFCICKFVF

T2: RESTV GP on rVSV particles (Reston virus (RESTV), UniProt Q66799 34-677)
T2 sequence: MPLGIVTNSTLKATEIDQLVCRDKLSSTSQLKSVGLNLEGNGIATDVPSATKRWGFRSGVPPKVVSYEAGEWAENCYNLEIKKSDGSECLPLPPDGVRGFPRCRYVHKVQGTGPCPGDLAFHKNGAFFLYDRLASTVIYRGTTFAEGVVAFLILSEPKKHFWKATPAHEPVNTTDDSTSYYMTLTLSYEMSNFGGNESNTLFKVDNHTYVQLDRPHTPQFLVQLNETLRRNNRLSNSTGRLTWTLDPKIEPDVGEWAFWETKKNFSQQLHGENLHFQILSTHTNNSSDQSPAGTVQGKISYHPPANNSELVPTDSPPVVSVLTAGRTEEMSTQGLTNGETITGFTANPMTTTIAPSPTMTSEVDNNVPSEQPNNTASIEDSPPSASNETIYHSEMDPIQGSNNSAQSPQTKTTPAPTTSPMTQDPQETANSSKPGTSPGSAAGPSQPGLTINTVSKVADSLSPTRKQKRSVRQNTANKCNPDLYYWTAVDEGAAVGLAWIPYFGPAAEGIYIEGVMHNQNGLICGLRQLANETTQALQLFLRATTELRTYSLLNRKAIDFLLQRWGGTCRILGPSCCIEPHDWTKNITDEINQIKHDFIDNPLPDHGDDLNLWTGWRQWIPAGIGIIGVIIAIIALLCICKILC

T3: TAFV GP on VSV pseudotype particles (Tai Forest virus (TAFV), UniProt Q66810 33-676)
T3 sequence: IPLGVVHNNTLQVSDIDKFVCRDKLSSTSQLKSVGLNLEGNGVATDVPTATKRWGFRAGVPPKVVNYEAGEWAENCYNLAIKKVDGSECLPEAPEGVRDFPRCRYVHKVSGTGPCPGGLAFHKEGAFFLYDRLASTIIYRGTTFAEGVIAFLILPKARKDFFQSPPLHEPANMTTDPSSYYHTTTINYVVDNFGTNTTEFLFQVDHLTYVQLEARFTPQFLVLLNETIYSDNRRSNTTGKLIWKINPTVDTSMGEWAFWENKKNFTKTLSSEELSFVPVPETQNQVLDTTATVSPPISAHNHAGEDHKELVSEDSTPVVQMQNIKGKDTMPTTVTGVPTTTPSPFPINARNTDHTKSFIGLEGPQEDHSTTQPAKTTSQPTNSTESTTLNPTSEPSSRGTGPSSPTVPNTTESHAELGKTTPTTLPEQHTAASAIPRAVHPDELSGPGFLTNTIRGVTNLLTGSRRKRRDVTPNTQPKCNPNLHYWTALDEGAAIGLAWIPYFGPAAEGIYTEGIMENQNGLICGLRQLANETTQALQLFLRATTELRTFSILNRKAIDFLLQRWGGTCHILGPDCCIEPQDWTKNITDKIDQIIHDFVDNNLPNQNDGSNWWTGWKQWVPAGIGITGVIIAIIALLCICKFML

T4: SUDV GP on rVSV particles (Sudan virus (SUDV), UniProt Q66814 33-676)
T4 sequence: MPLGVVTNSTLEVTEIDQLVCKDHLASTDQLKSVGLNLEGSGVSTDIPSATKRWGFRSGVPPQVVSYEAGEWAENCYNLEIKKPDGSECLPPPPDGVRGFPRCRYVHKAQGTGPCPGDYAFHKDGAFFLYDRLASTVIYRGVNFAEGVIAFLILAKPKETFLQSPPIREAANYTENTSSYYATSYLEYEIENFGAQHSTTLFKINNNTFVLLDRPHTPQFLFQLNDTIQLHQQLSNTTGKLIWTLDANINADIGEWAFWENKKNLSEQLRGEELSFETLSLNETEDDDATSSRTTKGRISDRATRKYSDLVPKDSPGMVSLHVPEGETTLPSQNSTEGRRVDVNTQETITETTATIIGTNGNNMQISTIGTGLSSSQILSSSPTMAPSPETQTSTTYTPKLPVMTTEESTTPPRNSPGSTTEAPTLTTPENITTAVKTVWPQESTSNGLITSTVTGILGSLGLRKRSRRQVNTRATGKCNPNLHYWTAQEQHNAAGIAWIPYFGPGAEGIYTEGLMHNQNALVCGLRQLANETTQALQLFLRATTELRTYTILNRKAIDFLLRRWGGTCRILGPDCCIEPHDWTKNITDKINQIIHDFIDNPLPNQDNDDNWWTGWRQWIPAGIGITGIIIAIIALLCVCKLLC


Assays:
Test in all cases: cell-based or functional assay
[1] = target: T1, EBOV GP on rVSV particles
[2] = target: T2, RESTV GP on rVSV particles
[3] = target: T3, TAFV GP on VSV pseudotype particles
[4] = target: T4, SUDV GP on rVSV particles
[5] = target: BDBV GP on rVSV particles (Bundibugyo virus (BDBV))

Binder	rVSV-GP neutralization IC50 [1] [nM]	rVSV-GP neutralization IC50 [2] [nM]	rVSV-GP neutralization IC50 [3] [nM]	rVSV-GP neutralization IC50 [4] [nM]	rVSV-GP neutralization IC50 [5] [nM]
mAb PE-87 (antibody, V domains shown) VH: QVQLVQSGVTLVQPGGSLRVSCAASGFTFSSYAMSWVRQAPGKGLEWVSAISGLGGSTYYADSVKGRFTISRDNSKNTLYLQMNSLRAEDTAVYYCAKDHRVWAAGYHFDYWGQGALVTVSS VL: DIVLTQSPSTLSASVGDRVTITCRASQSISSWLAWYQQKPGEAPKLLISDASSLESGVPSRFSGSGSGTEFTLTISSLQPDDFATYYCQQYYSSPTFGGGTKVEIK	0.5	0.2	1	0.3	0.5
mAb PE-24 (antibody, V domains shown) VH: EVQLVESGGGLVQPGGSLRLSCAASGFTFSSYAMSWVRQAPGKGLEWVSEISGLGGSTYYADSAKGRFTISRDNSKSTLYLQMNSLRAEDTAVYYCAKDHRVWAPGYYFDHWGQGTLVTVSS VL: DIVLTQSPSTLSASVGDRVTITCRASQSISSWLAWYQQKPGKAPKLLIYDASSLESGVPSRFSGSGSGTEFTLTISSLQPDDFATYFCQQYNRSPTFGGGTKVEIK	2	0.2	1.5	0.5	1
mAb PE-16 (antibody, V domains shown) VH: QVQLVQSGAEVTKPGASVKVSCKASGYTFTTYYMHWVRQAPGQGLEWVGIINPSGGITRYAQKFQGRVTLTRDTSTTTVYMELSSLRSEDTAVYYCARDRYPVLFATDYGMDVWGQGTTVTVSS VL: DIVMTQSPATLSLSPGERATLSCRASQSVSGYLAWYQQKPGQAPRLLIYDASNRATGIPARFSGSGSGTDFTLTISSLEPEDFAVYYCQQRSIWPPGVTFGGGTKVEIK	0.2	–	4.8	–	0.6
mAb PE-05 (antibody, V domains shown) VH: QVQLQESGGGLVKPGRSLRLSCTASGFTFGDYAMSWFRQAPGKGLEWVGFLRSKAYGGTAEYAASVKGRFTMSRDDSKSIAYLQMNSLKTEDTAVYFCTRDGFRGSSWGYSYYGMDVWGQGTTVTVSS VL: not shown	9	22	0.8	34	4

— patent US20180244758A1 (MAPP BIOPHARMACEUTICAL, published 2018)
